In one assay the target is B2M (UniProt P61769 21-119). In words: ELISA.
Assay [1] addresses T1, HLA-G expressed on the cell surface (human, UniProt P17693 25-338).
T1 construct: whole, on cells; The cell line of each entry is named under assay or readout; also called HLA-G on JEG-3 cells; HLA-G on SCH cells
The assay is described as follows: flow cytometry on JEG-3 and SCH cells naturally expressing HLA-G, anti-human IgG PE.

For assay [2], the target named is T1, HLA-G expressed on the cell surface. In words: cell-based or functional assay.

Bounds are passed on as bounds.

These results are taken from patent EP4793288A1 (Imbiologics Corp., dated 2025).

Chain of B2M (P61769 21-119 limits assumed): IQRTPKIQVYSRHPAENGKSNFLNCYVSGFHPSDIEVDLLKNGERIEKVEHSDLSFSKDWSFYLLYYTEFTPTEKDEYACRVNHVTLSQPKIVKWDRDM

B1: 2F1HS6LS#46 (antibody, human IgG1, kappa, V domains shown)
VH: EVQLVESGGGLVQPGGSLRLSCAASGFTFSDYAMSWVRQAPGKGLEWVSRISQSGSYTYYADSVKGRFTISRDNSKNTLYLQMNSLRAEDTAVYYCAKEGTSSYRGWMDVWGQGTLVTVSS
VL: DIQMTQSPSSLSASVGDRVTITCRASQSISNWLNWYQQKPGKAPKLLIYATSRLQSGVPSRFSGSGSGTDFTLTISSLQPEDFATYYCQQSYSTPWTFGQGTKVEIKR
As to B1, the binding result with B2M is given as “no binding”. For the same molecule, the “fold HLA-G binding activity against the positive control antibody” value in assay [1] was at least 3 fold. Besides, in assay [2], the “EC50 (nM), ADCC reporter assay on SKOV-3/HLA-G cells” value came to 0.15 nM.

B2: 2F1HS6LS#38 (antibody, V domains shown)
VH: EVQLVESGGGLVQPGGSLRLSCAASGFTFSDYAMSWVRQAPGKGLEWVSRISQSGSYTYYADSVKGRFTISRDNSKNTLYLQMNSLRAEDTAVYYCAKEGTSSYRGWMDVWGQGTLVTVSS
VL: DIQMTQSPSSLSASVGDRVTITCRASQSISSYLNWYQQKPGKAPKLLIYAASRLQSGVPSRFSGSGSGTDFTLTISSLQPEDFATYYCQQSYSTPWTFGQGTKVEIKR
Consider B2, for which the binding result with B2M is “no binding”. Moreover, in assay [1], the “fold HLA-G binding activity against the positive control antibody” value was at least 3 fold. Also, the “EC50 (nM), ADCC reporter assay on SKOV-3/HLA-G cells” value in assay [2] worked out at 0.93 nM.
